Measurements reported in patent US20110212094A1 (AbbVie / Abbott, published 2011).
Blank lines part the entries; values can stand above or below the binder they belong to.

How the values were obtained:
[1] = target: T1, Recombinant Human TNF-α/TNFSF1A (human, UniProt P01375 77-233); assay: Biacore SPR
T1 construct: Bought reagent for Biacore; also called huTNFα
Procedure: (§1) The BIACORE assay (Biacore, Inc, Piscataway, N.J.) determines the affinity of antibodies or DVD-Ig with kinetic measurements of on-rate and off-rate constants. Binding of antibodies or DVD-Ig to a target antigen (for example, a purified recombinant target antigen) is determined by surface plasmon resonance-based measurements with a Biacore® 1000 or 3000 instrument (Biacore® AB, Uppsala, Sweden) using running HBS-EP (10 mM HEPES [pH 7.4], 150 mM NaCl, 3 mM EDTA, and 0.005% surfactant P20) at 25° C. All chemicals are obtained from Biacore® AB (Uppsala, Sweden) or otherwise from a different source as described in the text. For example, approximately 5000 RU of goat anti-mouse IgG, (Fcγ), fragment specific polyclonal antibody (Pierce Biotechnology Inc, Rockford, Ill.) diluted in 10 mM sodium acetate (pH 4.5) is directly immobilized across a CM5 research grade biosensor chip using a standard amine coupling kit according to manufacturer's instructions and procedures at 25 μg/ml. Unreacted moieties on the biosensor surface are blocked with ethanolamine. Modified carboxymethyl dextran surface in flowcell 2 and 4 is used as a reaction surface. Unmodified carboxymethyl dextran without goat anti-mouse IgG in flow cell 1 and 3 is used as the reference surface. For kinetic analysis, rate equations derived from the 1:1 Langmuir binding model are fitted simultaneously to association and dissociation phases of all eight injections (using global fit analysis) with the use of Biaevaluation 4.0.1 software. Purified antibodies or DVD-Ig are diluted in HEPES-buffered saline for capture across goat anti-mouse IgG specific reaction surfaces. Antibodies or DVD-Ig to be captured as a ligand (25 μg/ml) are injected over reaction matrices at a flow rate of 5 μl/min. The association and dissociation rate constants, kₘ (M⁻¹s⁻¹) and koff (s⁻¹) are determined under a continuous flow rate of 25 μl/min. Rate constants are derived by making kinetic binding measurements at different antigen concentrations ranging from 10-200 nM. The equilibrium dissociation constant (M) of the reaction between antibodies or DVD-Igs and the target antigen is then calculated from the kinetic rate constants by the following formula: KD=koff/kₒₙ. Binding is recorded as a function of time and kinetic rate constants are calculated.

[2] = target: T1, Recombinant Human TNF-α/TNFSF1A; assay: cell-based or functional assay
Recombinant Human SOST = target: T2, Recombinant Human SOST (human, UniProt Q9BQB4 24-213); assay: Biacore SPR
T2 construct: R&D reagent in Biacore; also called sclerostin; Human sclerostin (Abbott PR-1261069)
T2 sequence (looked up): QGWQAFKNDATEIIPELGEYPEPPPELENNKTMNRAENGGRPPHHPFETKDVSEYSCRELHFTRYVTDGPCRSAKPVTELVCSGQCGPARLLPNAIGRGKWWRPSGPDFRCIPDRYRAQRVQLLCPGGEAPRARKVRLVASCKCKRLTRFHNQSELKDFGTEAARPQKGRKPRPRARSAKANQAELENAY
Procedure: as §1

T1 sequence (P01375 77-233 limits assumed): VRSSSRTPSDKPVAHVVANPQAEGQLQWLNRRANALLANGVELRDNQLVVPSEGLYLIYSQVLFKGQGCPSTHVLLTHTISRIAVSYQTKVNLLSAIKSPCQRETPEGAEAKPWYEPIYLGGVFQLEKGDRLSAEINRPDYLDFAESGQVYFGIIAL

- Kd [1]: 0.157 nM
- koff [1]: 0.000272 s⁻¹
- kon [1]: 1.74e+06 M⁻¹ s⁻¹
- TNFα Neutralization Assay EC50 nM (L929 cells) [2]: 1.21 nM
B1: AB215 (antibody, human IgG1, kappa, V domains shown)
VH: QVQLVESGGGVVQPGRSLRLSCAASGFTFSSYAMHWVRQAPGNGLEWVAFMSYDGSNKYAKDSVKGRFTISRDNSKNTLYLQMNSLRAEDTAVYYCARDRGIAAGGNYYYYGMDVWGQGTTVTVSS
VL: EIVLTQSPATLSLSPGERATLSCRASQSVYSYLAWYQQKPGQAPRLLIYDASNRATGIPARFSGSGSGTDFTLTISSLEPEDFAVYYCQQRSNWPPFTFGPGTKVDIKR
notes: Parent anti-TNF antibody; also called AB215VH

- Kd (Recombinant Human SOST): 0.0546 nM
- koff (Recombinant Human SOST): 0.00039 s⁻¹
- kon (Recombinant Human SOST): 7.14e+06 M⁻¹ s⁻¹
- Kd [1]: 0.021 nM
- koff [1]: 5.94e-05 s⁻¹
- kon [1]: 2.83e+06 M⁻¹ s⁻¹
- N-terminal VD TNFα Neutralization Assay EC50 nM (L929 cells) [2]: 0.006 nM
B2: DVD1248 (bispecific antibody, human IgG1, kappa)
heavy: not shown
light: DIQMTQSPSSLSASVGDRVTITCRASQGIRIDLGWYQQKPGKAPKRLIYAASTLQSGVPSRFSGSGSGTEFIFTISSLQPEDFASYYCLQHKSYPLTFGGGTKVEIKRTVAAPDVQMIQSPSSLSASLGDIVTMTCQASQGTSINLNWFQQKPGKAPKLLIYGSSNLEDGVPSRFSGSRYGTDFTLTISSLEDEDLATYFCLQHSYLPYTFGGGTKLEIKRTVAAPSVFIFPPSDEQLKSGTASVVCLLNNFYPREAKVQWKVDNALQSGNSQESVTEQDSKDSTYSLSSTLTLSKADYEKHKVYACEVTHQGLSSPVTKSFNRGEC
notes: constant regions from vectors V1/V2; also called DVD1248H; DVD1248L

- Kd [1]: 0.107 nM
- koff [1]: 0.000291 s⁻¹
- kon [1]: 2.73e+06 M⁻¹ s⁻¹
- TNFα Neutralization Assay EC50 nM (L929 cells) [2]: 0.04 nM
B3: AB214 (antibody, human IgG1, kappa, V domains shown)
VH: EVKLEESGGGLVQPGGSMKLSCVASGFIFSNHWMNWVRQSPEKGLEWVAEIRSKSINSATHYAESVKGRFTISRDDSKSAVYLQMTDLRTEDTGVYYCSRNYYGSTYDYWGQGTTLTVSS
VL: DILLTQSPAILSVSPGERVSFSCRASQFVGSSIHWYQQRTNGSPRLLIKYASESMSGIPSRFSGSGSGTDFTLSINTVESEDIADYYCQESHSWPFTFGSGTNLEVKR
notes: Parent anti-TNF antibody; also called AB214VH

- Kd [1]: 0.0288 nM
- koff [1]: 5.15e-05 s⁻¹
- kon [1]: 1.79e+06 M⁻¹ s⁻¹
- TNFα Neutralization Assay EC50 nM (L929 cells) [2]: 0.0345 nM
B4: AB218 (antibody, human IgG1, kappa, V domains shown)
VH: EVQLVESGGGLIQPGGSLRLSCAASGFTVSRNYMSWVRQAPGKGLEWVSVIYSGDRTYYADSVKGRFTISRDNSKNTLYLQMNSLRAEDTAVYYCARGEGGFDYWGQGTLVTVSS
VL: EIVMTQSPATLSVSPGERATLSCRASQSVSSNLAWYQQKPGQAPRLLIHGASIRATGLPARFSGSGSGTEFTLTISSLQSEDFAVYYCQQYNYWWTFGQGTKVEIKR
notes: Parent anti-TNF antibody; also called AB218VH

- Kd [1]: 0.0335 nM
- koff [1]: 0.000108 s⁻¹
- kon [1]: 3.23e+06 M⁻¹ s⁻¹
- TNFα Neutralization Assay EC50 nM (L929 cells) [2]: 0.189 nM
B5: AB213 (antibody, human IgG1, kappa, V domains shown)
VH: QVQLKESGPGLVAPSQSLSITCTVSGFSLTDYGVNWVRQPPGKGLEWLGMIWGDGSTDYDSTLKSRLSISKDNSKSQIFLKMNSLQTDDTARYYCAREWHHGPVAYWGQGTLVTVSA
VL: DIVMTQSHKFMSTTVGDRVSITCKASQAVSSAVAWYQQKPGQSPKLLIYWASTRHTGVPDRFTGSGSVTDFTLTIHNLQAEDLALYYCQQHYSTPFTFGSGTKLEIKR
notes: Parent anti-TNF antibody; also called AB213VH

- Kd (Recombinant Human SOST): 1.59 nM
- koff (Recombinant Human SOST): 0.000365 s⁻¹
- kon (Recombinant Human SOST): 230000 M⁻¹ s⁻¹
- Kd [1]: 0.0347 nM
- koff [1]: 8.55e-05 s⁻¹
- kon [1]: 2.46e+06 M⁻¹ s⁻¹
B6: DVD1256 (bispecific antibody, human IgG1, kappa)
heavy: not shown
light: EIVMTQSPATLSVSPGERATLSCRASQSVSSNLAWYQQKPGQAPRLLIHGASIRATGLPARFSGSGSGTEFTLTISSLQSEDFAVYYCQQYNYWWTFGQGTKVEIKRTVAAPDVQMIQSPSSLSASLGDIVTMTCQASQGTSINLNWFQQKPGKAPKLLIYGSSNLEDGVPSRFSGSRYGTDFTLTISSLEDEDLATYFCLQHSYLPYTFGGGTKLEIKRTVAAPSVFIFPPSDEQLKSGTASVVCLLNNFYPREAKVQWKVDNALQSGNSQESVTEQDSKDSTYSLSSTLTLSKADYEKHKVYACEVTHQGLSSPVTKSFNRGEC
notes: constant regions from vectors V1/V2; also called DVD1256H; DVD1256L

- Kd (Recombinant Human SOST): 0.03 nM
- koff (Recombinant Human SOST): 0.000211 s⁻¹
- kon (Recombinant Human SOST): 7.05e+06 M⁻¹ s⁻¹
- Kd [1]: 0.381 nM
- koff [1]: 4.64e-05 s⁻¹
- kon [1]: 122000 M⁻¹ s⁻¹
- C-terminal VD TNFα Neutralization Assay EC50 nM (L929 cells) [2]: 1.23 nM
B7: DVD1227 (bispecific antibody, human IgG1, kappa)
heavy: not shown
light: DVQMIQSPSSLSASLGDIVTMTCQASQGTSINLNWFQQKPGKAPKLLIYGSSNLEDGVPSRFSGSRYGTDFTLTISSLEDEDLATYFCLQHSYLPYTFGGGTKLEIKRTVAAPDIVMTQSHKFMSTTVGDRVSITCKASQAVSSAVAWYQQKPGQSPKLLIYWASTRHTGVPDRFTGSGSVTDFTLTIHNLQAEDLALYYCQQHYSTPFTFGSGTKLEIKRTVAAPSVFIFPPSDEQLKSGTASVVCLLNNFYPREAKVQWKVDNALQSGNSQESVTEQDSKDSTYSLSSTLTLSKADYEKHKVYACEVTHQGLSSPVTKSFNRGEC
notes: constant regions from vectors V1/V2; also called DVD1227H; DVD1227L

- Kd (Recombinant Human SOST): 0.0226 nM
- koff (Recombinant Human SOST): 0.00019 s⁻¹
- kon (Recombinant Human SOST): 8.43e+06 M⁻¹ s⁻¹
- Kd [1]: 3.6 nM
- koff [1]: 0.000398 s⁻¹
- kon [1]: 110000 M⁻¹ s⁻¹
B8: DVD1229 (bispecific antibody, human IgG1, kappa)
heavy: not shown
light: DVQMIQSPSSLSASLGDIVTMTCQASQGTSINLNWFQQKPGKAPKLLIYGSSNLEDGVPSRFSGSRYGTDFTLTISSLEDEDLATYFCLQHSYLPYTFGGGTKLEIKRTVAAPDILLTQSPAILSVSPGERVSFSCRASQFVGSSIHWYQQRTNGSPRLLIKYASESMSGIPSRFSGSGSGTDFTLSINTVESEDIADYYCQESHSWPFTFGSGTNLEVKRTVAAPSVFIFPPSDEQLKSGTASVVCLLNNFYPREAKVQWKVDNALQSGNSQESVTEQDSKDSTYSLSSTLTLSKADYEKHKVYACEVTHQGLSSPVTKSFNRGEC
notes: constant regions from vectors V1/V2; also called DVD1229H; DVD1229L

- Kd (Recombinant Human SOST): 4.74 nM
- koff (Recombinant Human SOST): 0.00029 s⁻¹
- kon (Recombinant Human SOST): 61100 M⁻¹ s⁻¹
- Kd [1]: 0.132 nM
- koff [1]: 0.000223 s⁻¹
- kon [1]: 1.69e+06 M⁻¹ s⁻¹
- N-terminal VD TNFα Neutralization Assay EC50 nM (L929 cells) [2]: 1.05 nM
B9: DVD1230 (bispecific antibody, human IgG1, kappa)
heavy: not shown
light: EIVLTQSPATLSLSPGERATLSCRASQSVYSYLAWYQQKPGQAPRLLIYDASNRATGIPARFSGSGSGTDFTLTISSLEPEDFAVYYCQQRSNWPPFTFGPGTKVDIKRTVAAPDVQMIQSPSSLSASLGDIVTMTCQASQGTSINLNWFQQKPGKAPKLLIYGSSNLEDGVPSRFSGSRYGTDFTLTISSLEDEDLATYFCLQHSYLPYTFGGGTKLEIKRTVAAPSVFIFPPSDEQLKSGTASVVCLLNNFYPREAKVQWKVDNALQSGNSQESVTEQDSKDSTYSLSSTLTLSKADYEKHKVYACEVTHQGLSSPVTKSFNRGEC
notes: constant regions from vectors V1/V2; also called DVD1230H; DVD1230L

- Kd [1]: 0.0272 nM
- koff [1]: 5.04e-05 s⁻¹
- kon [1]: 1.85e+06 M⁻¹ s⁻¹
- TNFα Neutralization Assay EC50 nM (L929 cells) [2]: 0.212 nM
B10: AB217 (antibody, human IgG1, kappa, V domains shown)
VH: QVQLVESGGGVVQPGRSLRLSCAASGFTFSSYDMHWVRQAPGKGLEWVAVIWSDGSIKYYADSVKGRFTISRDNSKNTLYLQMNSLRAEDTAVYYCAREVESAMGGFYYNGMDVWGQGTTVTVSS
VL: DIQMTQSPSSLSASVGDRVTITCRASQGIRIDLGWYQQKPGKAPKRLIYAASTLQSGVPSRFSGSGSGTEFIFTISSLQPEDFASYYCLQHKSYPLTFGGGTKVEIKR
notes: Parent anti-TNF antibody; also called AB217VH

- Kd (Recombinant Human SOST): 0.0408 nM
- koff (Recombinant Human SOST): 0.000396 s⁻¹
- kon (Recombinant Human SOST): 9.68e+06 M⁻¹ s⁻¹
B11: AB022 (antibody, V domains shown)
VH: EVQLQQSGPELVTPGASVKISCKASGYTFTDHYMSWVKQSHGKSLEWIGDINPYSGETTYNQKFKGTATLTVDKSSSIAYMEIRGLTSEDSAVYYCARDDYDASPFAYWGQGTLVTVSA
VL: DVQMIQSPSSLSASLGDIVTMTCQASQGTSINLNWFQQKPGKAPKLLIYGSSNLEDGVPSRFSGSRYGTDFTLTISSLEDEDLATYFCLQHSYLPYTFGGGTKLEIKR
notes: Parent anti-SOST antibody; also called SOST; AB022VH
